Test results published in patent publication US20240390512A1 (Daiichi Sankyo, published 2024).

T1: mouse CDH6, on cells (mouse, UniProt P97326 54-790)
T1 construct: also called mCDH6; NP_031692
T1 sequence: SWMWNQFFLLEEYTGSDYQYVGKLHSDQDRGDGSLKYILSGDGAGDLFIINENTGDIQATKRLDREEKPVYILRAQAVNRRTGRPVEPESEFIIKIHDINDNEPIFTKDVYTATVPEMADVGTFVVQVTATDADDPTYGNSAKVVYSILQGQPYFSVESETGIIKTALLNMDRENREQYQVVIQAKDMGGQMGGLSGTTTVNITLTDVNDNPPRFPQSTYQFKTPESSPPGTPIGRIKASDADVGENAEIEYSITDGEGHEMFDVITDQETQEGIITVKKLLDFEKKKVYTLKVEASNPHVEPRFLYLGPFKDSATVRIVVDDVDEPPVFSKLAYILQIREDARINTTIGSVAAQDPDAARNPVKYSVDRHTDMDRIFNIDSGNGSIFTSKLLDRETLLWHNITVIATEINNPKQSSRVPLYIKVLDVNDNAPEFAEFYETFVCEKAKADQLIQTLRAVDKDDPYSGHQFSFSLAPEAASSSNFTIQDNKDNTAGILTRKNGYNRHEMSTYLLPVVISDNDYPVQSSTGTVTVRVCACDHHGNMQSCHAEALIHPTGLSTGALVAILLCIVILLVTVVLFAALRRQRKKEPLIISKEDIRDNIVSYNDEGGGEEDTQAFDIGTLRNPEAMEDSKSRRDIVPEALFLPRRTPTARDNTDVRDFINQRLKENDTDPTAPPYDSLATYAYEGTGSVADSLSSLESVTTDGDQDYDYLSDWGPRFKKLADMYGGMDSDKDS

T2: rat CDH6, on cells (rat, UniProt P55280 54-789)
T2 construct: also called rCDH6; NP_037059
T2 sequence: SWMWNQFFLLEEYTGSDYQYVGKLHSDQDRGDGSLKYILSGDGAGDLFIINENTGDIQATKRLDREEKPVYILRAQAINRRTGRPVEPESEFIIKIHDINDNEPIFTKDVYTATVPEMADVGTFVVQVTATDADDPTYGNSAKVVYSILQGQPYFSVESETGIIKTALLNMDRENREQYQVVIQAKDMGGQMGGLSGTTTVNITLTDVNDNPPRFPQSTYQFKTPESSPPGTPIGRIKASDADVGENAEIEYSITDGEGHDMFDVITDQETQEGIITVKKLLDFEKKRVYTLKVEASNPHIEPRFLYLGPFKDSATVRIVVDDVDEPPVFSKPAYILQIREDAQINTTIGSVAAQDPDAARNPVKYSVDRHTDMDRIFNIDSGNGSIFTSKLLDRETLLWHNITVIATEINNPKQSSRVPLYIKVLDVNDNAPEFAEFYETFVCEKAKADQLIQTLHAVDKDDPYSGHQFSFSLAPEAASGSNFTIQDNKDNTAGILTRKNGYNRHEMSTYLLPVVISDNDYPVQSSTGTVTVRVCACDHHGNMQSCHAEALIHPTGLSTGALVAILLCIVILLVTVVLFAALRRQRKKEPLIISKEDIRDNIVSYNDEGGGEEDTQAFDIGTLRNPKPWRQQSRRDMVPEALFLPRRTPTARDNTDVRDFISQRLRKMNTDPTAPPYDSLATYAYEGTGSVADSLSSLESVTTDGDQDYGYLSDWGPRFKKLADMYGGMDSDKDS

T3: Recombinant Human CDH6 Fc His chimera (R&D Systems, Inc.) (human, UniProt P55285 54-615)
T3 construct: Bought reagent; also called the antigen; human CDH6 antigen; Fc part of the bought chimera not given; His tag of the bought chimera
T3 sequence: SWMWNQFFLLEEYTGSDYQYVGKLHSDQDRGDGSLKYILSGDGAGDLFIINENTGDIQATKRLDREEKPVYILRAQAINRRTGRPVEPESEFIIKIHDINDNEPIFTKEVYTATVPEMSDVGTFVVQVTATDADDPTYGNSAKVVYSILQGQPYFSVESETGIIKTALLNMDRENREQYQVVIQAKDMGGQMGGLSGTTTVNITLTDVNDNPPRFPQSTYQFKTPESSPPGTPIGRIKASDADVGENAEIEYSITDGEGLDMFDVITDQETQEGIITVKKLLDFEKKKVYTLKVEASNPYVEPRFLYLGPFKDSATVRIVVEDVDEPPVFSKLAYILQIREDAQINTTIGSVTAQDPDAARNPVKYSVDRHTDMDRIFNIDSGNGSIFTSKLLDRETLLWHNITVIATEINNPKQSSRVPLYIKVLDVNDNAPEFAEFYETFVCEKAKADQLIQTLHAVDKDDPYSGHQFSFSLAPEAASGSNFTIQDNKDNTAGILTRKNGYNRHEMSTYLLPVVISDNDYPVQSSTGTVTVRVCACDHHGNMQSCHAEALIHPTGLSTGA

T4: EC3 deletion mutant of human CDH6, on cells (human, UniProt P55285 54-790)
T4 construct: in p3×FLAG-CMV-9; also called EC3-deleted hCDH6
T4 sequence: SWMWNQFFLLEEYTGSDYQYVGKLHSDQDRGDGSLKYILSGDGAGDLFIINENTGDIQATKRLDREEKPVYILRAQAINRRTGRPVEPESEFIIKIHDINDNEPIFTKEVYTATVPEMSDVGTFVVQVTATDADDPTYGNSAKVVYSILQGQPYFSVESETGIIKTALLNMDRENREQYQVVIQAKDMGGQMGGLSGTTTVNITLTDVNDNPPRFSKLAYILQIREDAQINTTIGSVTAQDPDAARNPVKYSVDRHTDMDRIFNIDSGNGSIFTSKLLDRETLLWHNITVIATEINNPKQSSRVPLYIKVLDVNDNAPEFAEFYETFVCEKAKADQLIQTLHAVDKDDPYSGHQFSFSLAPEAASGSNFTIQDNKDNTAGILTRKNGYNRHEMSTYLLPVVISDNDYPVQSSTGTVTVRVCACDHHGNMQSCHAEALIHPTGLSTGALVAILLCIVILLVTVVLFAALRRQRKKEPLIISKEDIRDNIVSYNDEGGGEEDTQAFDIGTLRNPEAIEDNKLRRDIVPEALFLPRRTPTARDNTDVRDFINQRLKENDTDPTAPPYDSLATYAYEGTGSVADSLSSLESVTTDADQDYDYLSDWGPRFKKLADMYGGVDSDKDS

T5: human CDH6 (cadherin-6), full-length, on cells (human, UniProt P55285 54-790)
T5 construct: also called hCDH6; full-length hCDH6
T5 sequence: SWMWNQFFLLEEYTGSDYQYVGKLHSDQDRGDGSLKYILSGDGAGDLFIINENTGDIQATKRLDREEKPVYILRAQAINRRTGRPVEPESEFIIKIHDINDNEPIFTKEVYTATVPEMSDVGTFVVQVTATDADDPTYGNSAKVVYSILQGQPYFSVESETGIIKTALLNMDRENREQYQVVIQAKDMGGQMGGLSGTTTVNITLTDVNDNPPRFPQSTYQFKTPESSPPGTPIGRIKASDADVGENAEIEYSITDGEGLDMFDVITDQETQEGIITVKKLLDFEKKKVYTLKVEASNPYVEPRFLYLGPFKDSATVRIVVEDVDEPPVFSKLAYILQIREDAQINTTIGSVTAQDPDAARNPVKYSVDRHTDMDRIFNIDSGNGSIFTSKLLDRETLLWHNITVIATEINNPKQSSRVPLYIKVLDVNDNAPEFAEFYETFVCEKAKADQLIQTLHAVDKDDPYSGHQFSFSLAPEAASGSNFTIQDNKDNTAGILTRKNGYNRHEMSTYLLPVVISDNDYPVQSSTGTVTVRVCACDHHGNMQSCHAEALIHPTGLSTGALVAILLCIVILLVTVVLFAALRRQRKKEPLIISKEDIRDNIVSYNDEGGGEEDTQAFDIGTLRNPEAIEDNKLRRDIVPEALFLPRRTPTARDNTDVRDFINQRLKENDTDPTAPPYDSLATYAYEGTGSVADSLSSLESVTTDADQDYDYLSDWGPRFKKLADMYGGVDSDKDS

T6: EC5 deletion mutant of human CDH6, on cells (human, UniProt P55285 54-790)
T6 construct: in p3×FLAG-CMV-9; also called EC5-deleted hCDH6
T6 sequence: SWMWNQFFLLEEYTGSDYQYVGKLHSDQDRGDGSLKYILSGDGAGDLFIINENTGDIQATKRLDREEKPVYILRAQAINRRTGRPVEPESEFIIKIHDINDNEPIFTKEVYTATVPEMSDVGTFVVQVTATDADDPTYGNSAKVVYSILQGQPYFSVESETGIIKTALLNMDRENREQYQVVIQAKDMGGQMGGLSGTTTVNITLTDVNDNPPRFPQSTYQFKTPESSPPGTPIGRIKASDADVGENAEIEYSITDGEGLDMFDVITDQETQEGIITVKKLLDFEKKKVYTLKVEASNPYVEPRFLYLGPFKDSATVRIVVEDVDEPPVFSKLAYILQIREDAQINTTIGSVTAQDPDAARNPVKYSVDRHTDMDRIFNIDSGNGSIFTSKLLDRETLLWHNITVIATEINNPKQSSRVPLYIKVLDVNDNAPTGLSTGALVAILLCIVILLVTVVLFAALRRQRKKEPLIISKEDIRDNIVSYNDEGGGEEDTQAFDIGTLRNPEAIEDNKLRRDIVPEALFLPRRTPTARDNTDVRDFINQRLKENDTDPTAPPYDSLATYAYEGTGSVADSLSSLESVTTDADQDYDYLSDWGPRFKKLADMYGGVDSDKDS


What was measured:
[1] = biological target: T1, mouse CDH6, on cells; test: flow cytometry; 293α cells transfected with mCDH6; PE anti-human IgG Fc(gamma) goat F(ab')
[2] = biological target: T2, rat CDH6, on cells; test: flow cytometry; 293α cells transfected with rCDH6; PE anti-human IgG Fc(gamma) goat F(ab')
[3] = biological target: T3, Recombinant Human CDH6 Fc His chimera …; test: SPR (Biacore T200); antigen captured by immobilized anti-His antibody, antibody as analyte 0.391 to 100 nM; steady state affinity model
[4] = biological target: T4, EC3 deletion mutant of human CDH6, on …; test: flow cytometry; 293α cells transfected with EC3-deleted hCDH6 (open line) against untransfected 293α cells (shaded); APC anti-human IgG goat F(ab')2; antibody concentration not given
[5] = biological target: T5, human CDH6 (cadherin-6), full-length, …; test: flow cytometry; 293α cells transfected with full-length hCDH6 (open line) against untransfected 293α cells (shaded); APC anti-human IgG goat F(ab')2; antibody concentration not given
[6] = biological target: T6, EC5 deletion mutant of human CDH6, on …; test: flow cytometry; 293α cells transfected with EC5-deleted hCDH6 (open line) against untransfected 293α cells (shaded); APC anti-human IgG goat F(ab')2; antibody concentration not given

Kd [3]	binding result [4]	binding result [5]	binding result [6]	Binder	binding result [1]	binding result [2]
1.1 nM	no binding			humanized anti-CDH6 antibody H04L02 (antibody, human IgG1, kappa, V domains shown, hH04 heavy chain and hL02 light chain, human IgG1 / kappa; also called H04L02 antibody) VH: QVQLVQSGAEVKKPGASVKVSCKASGYTFTRNFMHWIRQAPGQGLEWMGWIYPGDGETEYAQKFQGRVTLTADRSTSTAYMELSSLRSEDTAVYYCARGVYGGFAGGYFDFWGQGTLVTVSS VL: DIQMTQSPSSLSASVGDRVTITCKASQNIYKNLAWYQQKPGKAPKLLIYDANTLQTGVPSRFSGSGSGSDFTLTISSLQPEDFATYFCQQYYSGWAFGQGTKVEIKR	no binding (tested: about 4, unit not printed on the axis)	no binding (tested: about 4, unit not printed on the axis)
		binds	no binding	anti-CDH6 antibody NOV0712 (antibody, human IgG1, kappa, V domains shown, Made after WO 2016/024195; also called NOV0712 antibody) VH: QVQLLESGGGLVQPGGSLRLSCAASGFTFSSHGMHWVRQAPGKGLEWVSVISGSGSNTGYADSVKGRFTISRDNSKNTLYLQMNSLRAEDTAVYYCARQWGSYAFDSWGQGTLVTVSS VL: DIQMTQSPSSLSASVGDRVTITCRASQSISSYLNWYQQKPGKAPKLLIYAVSTLQSGVPSRFSGSGSGTDFTLTISSLQPEDFATYYCQQSGTFPPTTFGQGTKVEIKR		
